# According to patent EP1137786B1 (UNIVERSITY OF MARYLAND BIOTECHNOLOGY INSTITUTE, dated 2007):
# B1: CXCR4 (receptor)
# chain: MEGISIYTSDNYTEEMGSGDYDSMKEPCFREENANFNKIFLPTIYSIIFLTGIVGNGLVILVMGYQKKLRSMTDKYRLHLSVADLLFVITLPFWAVDAVANWYFGNFLCKAVHVIYTVNLYSSVLILAFISLDRYLAIVHATNSQRPRKLLAEKVVYVGVWIPALLLTIPDFIFANVSEADDRYICDRFYPNDLWVVVFQFQHIMVGLILPGIVILSCYCIIISKLSHSKGHQKRKALKTTVILILAFFACWLPYYIGISIDSFILLEIIKQGCEFENTVHKWISITEALAFFHCCLNPILYAFLGAKFKTSAQHALTSVSRGSSLKILSKGKRGGHSSVSTESESSSFHSS
# notes: whole, on cells; also called X4; L1.2/X4 cells
# Molecular target: full-length single chain (FLSC) gp120-CD4 chimeric polypeptide (HIV-1 BaL; human)
# Test: flow cytometry on L1.2/X4 cells
binder,measurement,value
B1,binding result,no binding
